Publication PMC10786891, “Massively parallel profiling of RNA-targeting CRISPR-Cas13d”
Residue numbers refer to the chain shown, from its start. Numbers in names are those of the source.

B1: target 1 MT 5'PFS UUG 3'PFS UCU (mixed)
RNA 1: CACCCGUGCAAAAAUGCAGGGGUCUAAAACUGAGCGGAUAACCUCUCUAUGG
RNA 2: GGGAAUGGAUCCACAUCUACGAAUUCUUGCCAUAGAGAGGUUAUCCGCUCAUCUAGAUCGGAAGAGCACACGU
B2: target 1 MT 5'PFS CAG 3'PFS CUG (mixed)
RNA 1: B1 RNA 1
RNA 2: B1 RNA 2 with U27C, U28A, U52C, C53U, U54G
B3: target 1 MT 5'PFS GAG 3'PFS AUC (mixed)
RNA 1: B1 RNA 1
RNA 2: B1 RNA 2 with U27G, U28A, U52A, C53U, U54C
B4: target 1 MT 5'PFS AGC 3'PFS AGG (mixed)
RNA 1: B1 RNA 1
RNA 2: B1 RNA 2 with U27A, U28G, G29C, U52A, C53G, U54G
B5: target 1 insG 3' of 9,insU 3' of 1 (mixed)
RNA 1: B1 RNA 1
RNA 2: GGGAAUGGAUCCACAUCUACGAAUUCGUACCAUAGAGAGGUUAGUCCGCUCAUCCGAGAUCGGAAGAGCACACGU
B6: target 1 MT 5'PFS GGC 3'PFS AAG (mixed)
RNA 1: B1 RNA 1
RNA 2: B1 RNA 2 with U27G, U28G, G29C, U52A, C53A, U54G
B7: target 1 MT 5'PFS CCA 3'PFS AGU (mixed)
RNA 1: B1 RNA 1
RNA 2: B1 RNA 2 with U27C, U28C, G29A, U52A, C53G
B8: target 1 MT 5'PFS UUA 3'PFS ACG (mixed)
RNA 1: B1 RNA 1
RNA 2: B1 RNA 2 with G29A, U52A, U54G
B9: target 1 MT 5'PFS GCG 3'PFS AGC (mixed)
RNA 1: B1 RNA 1
RNA 2: B1 RNA 2 with U27G, U28C, U52A, C53G, U54C
B10: target 1 MT 5'PFS UUA 3'PFS ACA (mixed)
RNA 1: B1 RNA 1
RNA 2: B1 RNA 2 with G29A, U52A, U54A
B11: target 1 C4G,G15A (mixed)
RNA 1: B1 RNA 1
RNA 2: B1 RNA 2 with U27G, G29A, G37A, C48G, U52C, U54G
B12: target 1 MT 5'PFS GUC 3'PFS UGG (mixed)
RNA 1: B1 RNA 1
RNA 2: B1 RNA 2 with U27G, G29C, C53G, U54G
B13: target 1 C2U,A9G (mixed)
RNA 1: B1 RNA 1
RNA 2: B1 RNA 2 with U27G, G29A, A43G, C50U, U52C, U54G
B14: target 1 MT 5'PFS GAC 3'PFS UGA (mixed)
RNA 1: B1 RNA 1
RNA 2: B1 RNA 2 with U27G, U28A, G29C, C53G, U54A
B15: target 1 C2A,A14C (mixed)
RNA 1: B1 RNA 1
RNA 2: B1 RNA 2 with U27G, G29A, A38C, C50A, U52C, U54G
B16: target 1 MT 5'PFS GUC 3'PFS CCU (mixed)
RNA 1: B1 RNA 1
RNA 2: B1 RNA 2 with U27G, G29C, U52C
B17: target 1 MT 5'PFS GGC 3'PFS CAC (mixed)
RNA 1: B1 RNA 1
RNA 2: B1 RNA 2 with U27G, U28G, G29C, U52C, C53A, U54C
B18: target 1 MT 5'PFS GUC 3'PFS UGC (mixed)
RNA 1: B1 RNA 1
RNA 2: B1 RNA 2 with U27G, G29C, C53G, U54C
B19: target 1 MT 5'PFS GAC 3'PFS CCU (mixed)
RNA 1: B1 RNA 1
RNA 2: B1 RNA 2 with U27G, U28A, G29C, U52C
B20: target 1 insU 3' of 22,insC 3' of 12 (mixed)
RNA 1: B1 RNA 1
RNA 2: GGGAAUGGAUCCACAUCUACGAAUUCGUACUCAUAGAGAGGCUUAUCCGCUCACCGAGAUCGGAAGAGCACACGU
B21: target 1 MT 5'PFS GUG 3'PFS UGU (mixed)
RNA 1: B1 RNA 1
RNA 2: B1 RNA 2 with U27G, C53G
B22: target 1 MT 5'PFS UUG 3'PFS UCG (mixed)
RNA 1: B1 RNA 1
RNA 2: B1 RNA 2 with U54G
B23: target 1 MT 5'PFS GAG 3'PFS AUA (mixed)
RNA 1: B1 RNA 1
RNA 2: B1 RNA 2 with U27G, U28A, U52A, C53U, U54A
B24: target 1 MT 5'PFS GAC 3'PFS UGU (mixed)
RNA 1: B1 RNA 1
RNA 2: B1 RNA 2 with U27G, U28A, G29C, C53G
B25: target 1 MT 5'PFS GGC 3'PFS CAG (mixed)
RNA 1: B1 RNA 1
RNA 2: B1 RNA 2 with U27G, U28G, G29C, U52C, C53A, U54G
B26: target 1 MT 5'PFS GUC 3'PFS UGA (mixed)
RNA 1: B1 RNA 1
RNA 2: B1 RNA 2 with U27G, G29C, C53G, U54A
B27: target 1 MT 5'PFS GCG 3'PFS AGA (mixed)
RNA 1: B1 RNA 1
RNA 2: B1 RNA 2 with U27G, U28C, U52A, C53G, U54A
B28: target 1 MT 5'PFS UUA 3'PFS UCG (mixed)
RNA 1: B1 RNA 1
RNA 2: B1 RNA 2 with G29A, U54G
B29: target 1 MT 5'PFS GUC 3'PFS UGU (mixed)
RNA 1: B1 RNA 1
RNA 2: B1 RNA 2 with U27G, G29C, C53G
B30: target 1 MT 5'PFS GGA 3'PFS CCG (mixed)
RNA 1: B1 RNA 1
RNA 2: B1 RNA 2 with U27G, U28G, G29A, U52C, U54G
B31: target 1 MT 5'PFS GAG 3'PFS AUU (mixed)
RNA 1: B1 RNA 1
RNA 2: B1 RNA 2 with U27G, U28A, U52A, C53U
B32: target 1 MT 5'PFS GUG 3'PFS UGC (mixed)
RNA 1: B1 RNA 1
RNA 2: B1 RNA 2 with U27G, C53G, U54C
B33: target 1 MT 5'PFS GGA 3'PFS CCU (mixed)
RNA 1: B1 RNA 1
RNA 2: B1 RNA 2 with U27G, U28G, G29A, U52C
B34: target 1 MT 5'PFS CCU 3'PFS ACC (mixed)
RNA 1: B1 RNA 1
RNA 2: B1 RNA 2 with U27C, U28C, G29U, U52A, U54C
B35: target 1 MT 5'PFS UUA 3'PFS UCA (mixed)
RNA 1: B1 RNA 1
RNA 2: B1 RNA 2 with G29A, U54A
B36: target 1 MT 5'PFS UUU 3'PFS AUC (mixed)
RNA 1: B1 RNA 1
RNA 2: B1 RNA 2 with G29U, U52A, C53U, U54C
B37: target 1 MT 5'PFS GUG 3'PFS UGG (mixed)
RNA 1: B1 RNA 1
RNA 2: B1 RNA 2 with U27G, C53G, U54G
B38: target 1 MT 5'PFS UUA 3'PFS ACC (mixed)
RNA 1: B1 RNA 1
RNA 2: B1 RNA 2 with G29A, U52A, U54C
B39: target 1 MT 5'PFS GUG 3'PFS UGA (mixed)
RNA 1: B1 RNA 1
RNA 2: B1 RNA 2 with U27G, C53G, U54A
B40: target 1 MT 5'PFS AUG 3'PFS CAC (mixed)
RNA 1: B1 RNA 1
RNA 2: B1 RNA 2 with U27A, U52C, C53A, U54C

Molecular target: T1, EsCas13d, nuclease-dead (Eubacterium siraeum, UniProt B0MS50, R295A;H300A;R849A;H854A)
T1 sequence: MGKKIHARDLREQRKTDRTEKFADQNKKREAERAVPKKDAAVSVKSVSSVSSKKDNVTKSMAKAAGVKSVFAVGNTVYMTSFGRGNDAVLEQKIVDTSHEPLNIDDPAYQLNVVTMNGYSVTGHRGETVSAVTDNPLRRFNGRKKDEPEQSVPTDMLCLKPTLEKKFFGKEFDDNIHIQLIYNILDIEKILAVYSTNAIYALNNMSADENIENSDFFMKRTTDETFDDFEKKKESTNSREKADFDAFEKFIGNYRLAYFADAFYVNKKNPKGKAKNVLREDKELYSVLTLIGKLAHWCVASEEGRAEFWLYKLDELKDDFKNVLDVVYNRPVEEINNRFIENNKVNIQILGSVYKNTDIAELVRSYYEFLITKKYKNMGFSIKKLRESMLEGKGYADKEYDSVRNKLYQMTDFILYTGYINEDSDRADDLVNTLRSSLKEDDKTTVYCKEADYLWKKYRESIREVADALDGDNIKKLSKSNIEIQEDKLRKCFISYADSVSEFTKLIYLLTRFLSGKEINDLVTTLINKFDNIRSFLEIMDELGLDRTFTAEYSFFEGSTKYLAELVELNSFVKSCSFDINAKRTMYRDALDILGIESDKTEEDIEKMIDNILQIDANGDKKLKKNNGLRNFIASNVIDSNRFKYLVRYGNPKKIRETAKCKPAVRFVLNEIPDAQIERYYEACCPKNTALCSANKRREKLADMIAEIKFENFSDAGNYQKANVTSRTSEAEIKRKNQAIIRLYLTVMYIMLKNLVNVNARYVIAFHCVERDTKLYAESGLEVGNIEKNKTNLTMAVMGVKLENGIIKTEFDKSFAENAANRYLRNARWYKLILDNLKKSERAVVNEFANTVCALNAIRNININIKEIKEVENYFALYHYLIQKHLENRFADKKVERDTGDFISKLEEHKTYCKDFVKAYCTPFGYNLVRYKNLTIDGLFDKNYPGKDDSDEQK
Assay: crRNA (strand 1, pre-loaded); Mg2+; 40 mM Tris-HCl pH 7.5, 150 mM NaCl, 6 mM MgCl2, 1 mM DTT, 0.1% Tween-20, 0.2 mg/ml BSA; 25 C; 10 min per concentration, then washed
Details: tags: His6-TwinStrep-SUMO cleaved; N-terminal SNAP kept (SNAP-Surface 488); label: 3' end held by stalled T7 RNA polymerase

Row | Binder | Kd [nM]
1 | B1 | 20.9 ± 3.9
2 | B2 | 19 ± 7.5
3 | B3 | ~60
4 | B4 | ~60
5 | B5 | 23.3 ± 3.4
6 | B6 | 36 ± 10
7 | B7 | 14 ± 5.9
8 | B8 | 21.8 ± 4.7
9 | B9 | 37 ± 11
10 | B10 | 37 ± 13
11 | B11 | 13.2 ± 1.2
12 | B12 | 65 ± 15.5
13 | B13 | 15.4 ± 1.4
14 | B14 | ~27.2
15 | B15 | 48.7 ± 3.1
16 | B16 | 15.3 ± 2.6
17 | B17 | ~17
18 | B18 | 13.2 ± 2.95
19 | B19 | ~14
20 | B20 | 92 ± 34

Row | Binder | Kd [nM]
21 | B21 | 27.1 ± 2.4
22 | B22 | 58.5 ± 22.5
23 | B23 | 34 ± 8.5
24 | B24 | 41.5 ± 12.5
25 | B25 | 25.5 ± 8.5
26 | B26 | 14.7 ± 3.4
27 | B27 | 26.4 ± 4.8
28 | B28 | 13.6 ± 2.85
29 | B29 | 21.5 ± 5
30 | B30 | 28.5 ± 7.5
31 | B31 | 36 ± 11
32 | B32 | 9.4 ± 0.45
33 | B33 | 10.3 ± 2.85
34 | B34 | ~14
35 | B35 | 25 ± 6.5
36 | B36 | 55 ± 18
37 | B37 | 110 ± 19.5
38 | B38 | ~22.5
39 | B39 | 14.9 ± 1.15
40 | B40 | ~29.5
